This is an account of results in publication PMC10191332.

pKd: −log10 of the molar value.

For this experiment, the target named is recombinant His-gH/gL (HCMV), purified (HCMV) (UniProt P12824). Description: BLI. A general note: Biolayer interferometry detects binding as a change in optical thickness at a sensor tip.

Consider “EphA2 extracellular domain (27-534), purified (from UniProt P29317 27-534) (domain or fragment)”, for which the pKd (in general, the Kd on a negative log10 scale, so that one unit is a factor of ten) was 7.44.
